# Measurements from PMC4081072, “Structure and semi-sequence-specific RNA binding of Nrd1”.
# T1: Nrd1 307-491 WT (Saccharomyces cerevisiae, UniProt P53617 307-491)
# T1 sequence: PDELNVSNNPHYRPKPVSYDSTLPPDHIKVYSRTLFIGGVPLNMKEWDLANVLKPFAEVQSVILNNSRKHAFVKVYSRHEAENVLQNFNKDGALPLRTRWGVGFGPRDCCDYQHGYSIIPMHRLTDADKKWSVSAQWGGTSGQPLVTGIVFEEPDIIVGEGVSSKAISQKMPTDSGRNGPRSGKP
# T2: Nrd1 307-491 H376A (Saccharomyces cerevisiae, UniProt P53617 307-491, H376A)
# T2 sequence: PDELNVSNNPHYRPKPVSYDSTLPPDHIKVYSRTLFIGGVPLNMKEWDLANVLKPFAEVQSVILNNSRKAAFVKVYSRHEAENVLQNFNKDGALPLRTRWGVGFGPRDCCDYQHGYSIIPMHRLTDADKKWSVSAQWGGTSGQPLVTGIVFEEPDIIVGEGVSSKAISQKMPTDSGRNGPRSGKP
# T3: Nrd1 307-491 D417A (Saccharomyces cerevisiae, UniProt P53617 307-491, D417A)
# T3 sequence: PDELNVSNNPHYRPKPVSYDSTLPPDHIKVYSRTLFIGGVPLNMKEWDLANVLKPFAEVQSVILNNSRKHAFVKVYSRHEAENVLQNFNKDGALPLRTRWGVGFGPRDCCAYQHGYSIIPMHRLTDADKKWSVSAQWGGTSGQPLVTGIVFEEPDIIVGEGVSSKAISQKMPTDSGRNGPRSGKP
# T4: Nrd1 307-491 R429D (Saccharomyces cerevisiae, UniProt P53617 307-491, R429D)
# T4 sequence: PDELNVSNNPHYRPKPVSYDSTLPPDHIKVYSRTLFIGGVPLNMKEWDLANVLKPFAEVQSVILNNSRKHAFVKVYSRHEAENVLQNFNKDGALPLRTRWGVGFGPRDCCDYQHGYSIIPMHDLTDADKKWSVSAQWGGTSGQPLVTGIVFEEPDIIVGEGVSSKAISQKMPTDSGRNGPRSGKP
# T5: Nrd1 307-491 F342A (Saccharomyces cerevisiae, UniProt P53617 307-491, F342A)
# T5 sequence: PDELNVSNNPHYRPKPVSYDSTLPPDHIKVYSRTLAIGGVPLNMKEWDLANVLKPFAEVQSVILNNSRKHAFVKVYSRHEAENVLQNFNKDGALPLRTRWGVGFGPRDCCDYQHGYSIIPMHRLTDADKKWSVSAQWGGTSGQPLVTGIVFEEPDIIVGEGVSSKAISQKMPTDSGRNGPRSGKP
# T6: Nrd1 307-491 T431R (Saccharomyces cerevisiae, UniProt P53617 307-491, T431R)
# T6 sequence: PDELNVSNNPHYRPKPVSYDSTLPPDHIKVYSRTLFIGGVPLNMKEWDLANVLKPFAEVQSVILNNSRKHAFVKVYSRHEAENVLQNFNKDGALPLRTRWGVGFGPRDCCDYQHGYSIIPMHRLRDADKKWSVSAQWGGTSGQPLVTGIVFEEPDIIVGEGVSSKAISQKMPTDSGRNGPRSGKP
# T7: Nrd1 307-491 F378A (Saccharomyces cerevisiae, UniProt P53617 307-491, F378A)
# T7 sequence: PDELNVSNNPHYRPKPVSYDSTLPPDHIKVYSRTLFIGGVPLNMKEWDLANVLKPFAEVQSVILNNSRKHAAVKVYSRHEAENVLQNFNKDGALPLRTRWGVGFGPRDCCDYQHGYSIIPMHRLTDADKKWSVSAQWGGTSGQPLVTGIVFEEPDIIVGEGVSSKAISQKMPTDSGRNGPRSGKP
# T8: Nrd1 307-491 G409A (Saccharomyces cerevisiae, UniProt P53617 307-491, G409A)
# T8 sequence: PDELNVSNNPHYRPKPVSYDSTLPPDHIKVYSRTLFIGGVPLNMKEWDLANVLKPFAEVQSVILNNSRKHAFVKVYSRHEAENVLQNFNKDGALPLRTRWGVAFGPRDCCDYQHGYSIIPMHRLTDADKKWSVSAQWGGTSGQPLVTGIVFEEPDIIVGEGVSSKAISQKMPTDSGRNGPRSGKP
# T9: Nrd1 307-491 K435D (Saccharomyces cerevisiae, UniProt P53617 307-491, K435D)
# T9 sequence: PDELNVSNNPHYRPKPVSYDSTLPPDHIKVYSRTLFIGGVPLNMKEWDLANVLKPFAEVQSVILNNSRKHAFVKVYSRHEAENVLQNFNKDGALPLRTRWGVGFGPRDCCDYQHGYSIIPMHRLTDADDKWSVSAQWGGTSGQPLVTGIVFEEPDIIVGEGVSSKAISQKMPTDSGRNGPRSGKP
# Experiments:
# Nrd1 307-491 WT [1] = target: T1, Nrd1 307-491 WT; assay: fluorescence anisotropy; FA: 10 nM RNA, 50 mM sodium phosphate pH 8, 150 mM NaCl, 10 mM beta-mercaptoethanol, 20 C (protein stock in 300 mM NaCl); NMR: same buffer with 300 mM NaCl, 20; settings: protein: recombinant, tags: C-terminal His6
# Nrd1 307-491 H376A = target: T2, Nrd1 307-491 H376A; assay: as above; settings: protein: recombinant; tags: C-terminal His6; label: 5' fluorescein or TAMRA (FA); unlabeled (NMR)
# Nrd1 307-491 D417A = target: T3, Nrd1 307-491 D417A; assay: as above; settings: protein: recombinant; tags: C-terminal His6; label: 5' fluorescein or TAMRA (FA); unlabeled (NMR)
# Nrd1 307-491 R429D = target: T4, Nrd1 307-491 R429D; assay: as above; settings: protein: recombinant; tags: C-terminal His6; label: 5' fluorescein or TAMRA (FA); unlabeled (NMR)
# Nrd1 307-491 F342A = target: T5, Nrd1 307-491 F342A; assay: as above; settings: protein: recombinant; tags: C-terminal His6; label: 5' fluorescein or TAMRA (FA); unlabeled (NMR)
# Nrd1 307-491 T431R = target: T6, Nrd1 307-491 T431R; assay: as above; settings: protein: recombinant; tags: C-terminal His6; label: 5' fluorescein or TAMRA (FA); unlabeled (NMR)
# Nrd1 307-491 F378A = target: T7, Nrd1 307-491 F378A; assay: as above; settings: protein: recombinant; tags: C-terminal His6; label: 5' fluorescein or TAMRA (FA); unlabeled (NMR)
# Nrd1 307-491 G409A = target: T8, Nrd1 307-491 G409A; assay: as above; settings: protein: recombinant; tags: C-terminal His6; label: 5' fluorescein or TAMRA (FA); unlabeled (NMR)
# Nrd1 307-491 K435D = target: T9, Nrd1 307-491 K435D; assay: as above; settings: protein: recombinant; tags: C-terminal His6; label: 5' fluorescein or TAMRA (FA); unlabeled (NMR)
# Nrd1 307-491 WT [2] = target: T1, Nrd1 307-491 WT; assay: fluorescence anisotropy; prolonged incubation between aliquots; FA: 10 nM RNA, 50 mM sodium phosphate pH 8, 150 mM NaCl, 10 mM beta-mercaptoethanol, 20 C (protein stock in 300 mM NaCl); NMR: same buffer with 300 mM NaCl, 20; settings: protein: recombinant; tags: C-terminal His6; label: 5' fluorescein or TAMRA (FA); unlabeled (NMR); may form quadruplex when free
Binder,Kd (Nrd1 307-491 WT [1]; label: 5' fluorescein or TAMRA),also measured
CACACAC (ssRNA),108 ± 4 µM,–
AGCGUGAAUUAAGUCUUGCACACACA (ssRNA) [win78dNrd1dAUrichCA],5.4 ± 0.2 µM,–
AUUAUUA (ssRNA),14.8 ± 0.4 µM,–
UGGA (ssRNA),94.1 ± 3.9 µM,–
UCUUG (ssRNA),41.1 ± 2.7 µM,–
AGCGUGAAUUAAGAGCGUAUAUAUAA (ssRNA) [win78dNrd1dNab3],7.9 ± 0.3 µM,–
AAAAAAA (ssRNA) [A7],32.1 ± 0.9 µM,–
GCGGGGC (ssRNA),–,"Kd (Nrd1 307-491 H376A): 37.5 ± 3.7 µM; Kd (Nrd1 307-491 D417A): 31.7 ± 6 µM; Kd (Nrd1 307-491 WT [1]; label: 5' fluorescein or TAMRA (FA), unlabeled (NMR)): 9.8 ± 0.3 µM; Kd (Nrd1 307-491 R429D): 60.1 ± 3.5 µM; Kd (Nrd1 307-491 F342A): 29.5 ± 4 µM; Kd (Nrd1 307-491 T431R): 48 ± 2.9 µM; Kd (Nrd1 307-491 F378A): 73.4 ± 10.7 µM; Kd (Nrd1 307-491 G409A): 30.3 ± 3.9 µM; Kd (Nrd1 307-491 K435D): 50.5 ± 10.8 µM"
AGCGUGAAUUAAGUCUUGAUAUAUAA (ssRNA) [win78dNrd1],2.5 ± 0.2 µM,–
UUUUUUU (ssRNA) [U7],69.8 ± 3.2 µM,–
GGGGGGG (ssRNA) [G7],–,Kd (Nrd1 307-491 WT [2]): 5.7 ± 1.2 µM
GUUGUUG (ssRNA),13 ± 0.7 µM,–
CCCCUGAAUUAAGCCCCCCCCCCCCC (ssRNA) [win78polyC],7.2 ± 0.5 µM,–
AUAUAUA (ssRNA),11.3 ± 0.5 µM,–
GUAAUGAAUUAAGUCUUGAUAUAUAA (ssRNA) [win78wt],1.5 ± 0.1 µM,–
UGGUGGU (ssRNA),6.8 ± 0.6 µM,–
GCGGGCG (ssRNA),13.2 ± 0.5 µM,–
CAGCGUC (ssRNA),37.7 ± 1.1 µM,–
